# Assay results reported in patent US20160362487A1 (Regeneron, published 2016).
# Where a chain is given by its changes, count along the chain named. In names and notes the source's numbering stands.
# T1: cynomolgus monkey IL-33 expressed with a C-terminal hexahistidine tag (cynomolgus monkey)
# T1 construct: also called MfIL-33-6His; Mf-IL-33-6His
# T1 chain: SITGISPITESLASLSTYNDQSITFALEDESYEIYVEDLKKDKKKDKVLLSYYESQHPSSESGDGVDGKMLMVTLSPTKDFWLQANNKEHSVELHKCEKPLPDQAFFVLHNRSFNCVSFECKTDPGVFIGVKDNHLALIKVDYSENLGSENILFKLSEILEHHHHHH
# T2: human IL-33 (R&D Systems, #3625-IL-010/CF) (human, UniProt O95760 112-270)
# T2 sequence (looked up): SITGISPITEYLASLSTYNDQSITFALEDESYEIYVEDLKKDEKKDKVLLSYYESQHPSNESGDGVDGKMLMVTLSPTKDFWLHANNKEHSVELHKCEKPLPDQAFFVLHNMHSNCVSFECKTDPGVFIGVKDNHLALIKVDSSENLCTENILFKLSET
# B1: H4H9640P (antibody, human IgG4, V domains shown)
# VH: QVQLQESGPGLVKPSETLSLTCTVSGGSISSYYWSWIRQPPGKGLELIGYIYYSGSTNYNPSLKSRVTISVDTSKNHFSLKLSSVTAADTAVYYCARSQYTSSWYGSFDIWGQGTMVTVSS
# VL: DIQMTQSPSSVSASVGDRVTITCRASQGISTWLAWFQQKPGKAPKLLIYAASTLQGGVPSRFSGSGSGPEFTLTISSLQPEDFATYYCQQANSFPWTFGQGTKVEIK
# notes: Human IgG4 Fc (H4H)
# B2: H4H9659P (antibody, human IgG4, V domains shown)
# VH: QVQLVQSGAEVKKPGASVKVSCKASGYTFNSYGISWVRQAPGQGLEWMGWISSHNGNSHYVQKFQGRVSMTTDTSTSTAYMELRSLRSDDTAVYYCARHSYTTSWYGGFDYWGQGTLVTVSS
# VL: B1 VL with I29F, T31S, F36Y, K45Q, T53S, G56S, P69S, E70D, W96L, Q100G
# notes: Human IgG4 Fc (H4H)
# B3: H4H9660P (antibody, human IgG4, V domains shown)
# VH: EVQLVESGGGLVQPGGSLRLSCAASGITLSSYGMSWVRQAPGKGLEWVASIFGSGGGPYYADSVKGRFTMSRDNSKNTLYLQMNSLRAEDTAVYYCAKDRYSGSYYGGFDYWGRGTLVTVSS
# VL: DIQMTQSPSSVSASVGDRVTITCRASQGITSWLAWYQQKPGKAPTLLIYAASSLQTGVPSRFSGSGSGTDFTLTISSLQPEHFATYYCQQANSFPPTFGGGTKVEIK
# notes: Human IgG4 Fc (H4H)
# B4: H4H9662P (antibody, V domains shown)
# VH: EVQLVESGGGLVQPGGSLRLSCAASGFTFSSYALTWVRQAPGKGLEWVSFISGSGGRPFYADSVKGRFTISRDNSKNMLYLQMNSLRAEDTAIYYCAKSLYTTSWYGGFDSWGQGTLVTVSS
# VL: B3 VL with I29V, T30V, T45K, T56S, H82D, A91S, P96F, F98L, G100P, E105D
# notes: Human IgG4 Fc (H4H)
# B5: H4H9663P (antibody, human IgG4, V domains shown)
# VH: QVQLVQSGAEVKKPGASVKVSCKASGYTFTGHYMYWMRQAPGQGLEWMGWINPNSGGTNYAQKFQDRVTMTRDTSISTAYMELSRLRSDDTAVYYCARGRYGSSWYGGFEYWGQGTLVTVSS
# VL: B3 VL with T45N, S52A, T56S, H82D, A84T, N92Y, F94L, P96L
# notes: Human IgG4 Fc (H4H)
# B6: H4H9664P (antibody, human IgG4, V domains shown)
# VH: QVQLVESGGGVVQPGRSLRLSCAASGFTFSSYGLHWVRQSPGKGLEWVALISYDGSNKYYADSVKGRFTISRDNSKNTLYLQMNSLRPEDTAGYFCAKSLYTTSWYGGFDYWGQGTLVTVSS
# VL: B3 VL with T30R, T45N, T56S, H82D, G100P, E105D
# notes: Human IgG4 Fc (H4H)
# B7: H4H9665P (antibody, human IgG4, V domains shown)
# VH: EVQLVESGGGLVQPGGSLRLSCAASGFTFSNYAMTWVRQAPGKGLEWVSTISGSGDNTYYADSVQGRFTISRGHSKNTLYLQMNSLRAEDTAVYYCAKPTYSRSWYGAFDFWGQGTMVTVSS
# VL: B3 VL with T30S, T45Q, S53R, T56S, S63W, H82D, S93N, P96F, G100P, E105D
# notes: Human IgG4 Fc (H4H)
# Molecular target: T1, cynomolgus monkey IL-33 expressed with …
# Experiment: competition ELISA, 150 pM MfIL-33-6His on coated hST2-hFc
# Protocol: The ability of anti-IL-33 antibodies to block either human IL-33 (hIL-33) or cynomologus monkey IL-33 binding to the human ST2 receptor was measured using a competition sandwich ELISA. […] The antibody/IL-33 mixtures were incubated for 1 hour at room temperature before they were transferred to the hST2-hFc-coated microtiter plates. After incubating for 1 hour at room temperature, the wells were then washed, and plate-bound biotin-hIL-33 was detected with streptavidin conjugated with horse-radish peroxidase (HRP) (Thermo Scientific, Cat # N200), and plate-bound MfIL-33-6His was detected with a HRP conjugated anti-His monoclonal antibody (Qiagen, #34460). All samples were developed with a TMB solution (BD biosciences, #51-2607KC) to produce a colorimetric reaction and then quenched by acidification with 1M sulfuric acid before measuring absorbance at 450 nm on a Victor X5 plate reader. Data analysis was performed using a sigmoidal dose-response model within Prism™ software. […] Percent blockade was calculated as the ratio of the reduction in signal observed in the presence of antibody relative to the difference between the signal with IL-33 alone and background (signal from HRP-conjugated secondary antibody or streptavidin alone). The absorbance measured for the constant concentration of biotin-hIL-33 or MfIL-33-6His alone is defined as 0% blocking and the absorbance measured for no added IL-33 is defined as 100% blocking.
Binder,% Maximum blocking [%],IC50 [nM]
B1,73,3.5
B2,92,0.6
B3,68,4.2
B4,87,0.86
B5,81,1.2
B6,67,3.8
B7,81,0.42

# Molecular target: T1, cynomolgus monkey IL-33 expressed with …
# Experiment: cell-based or functional assay
row,Binder,"IC50, inhibition of 5 pM MfIL-33-6His activation of HEK293/hST2/NFkB-luciferase cells [M]"
1,B1,1.4e-08
2,B2,3.3e-09
3,B3,1.9e-08
4,B4,1.5e-09
5,B5,2.7e-09
6,B6,2.6e-08
7,B7,6.6e-10

# Molecular target: T2, human IL-33 (R&D Systems, …)
# Experiment: cell-based or functional assay
row,Binder,"IC50, inhibition of 10 pM hIL-33 activation of HEK293/hST2/NFkB-luciferase cells [M]"
1,B1,3e-11
2,B2,4.7e-11
3,B3,3.5e-11
4,B4,2e-11
5,B5,1.3e-10
6,B6,5e-11
7,B7,9e-11

# Molecular target: T1, cynomolgus monkey IL-33 expressed with …
# Experiment: SPR 37C, pH6.0 chase, mAb captured
# Protocol: (§1) Equilibrium dissociation constants (KD values) for IL-33 binding to purified anti-IL-33 monoclonal antibodies were determined using a real-time surface plasmon resonance biosensor using a Biacore 4000 instrument. The Biacore sensor surface was first derivatized by amine coupling with either a polyclonal rabbit anti-mouse antibody (GE, # BR-1008-38) or with a monoclonal mouse anti-human Fc antibody (GE, # BR-1008-39) to capture anti-IL-33 monoclonal antibodies expressed with mouse or with human IgG4 constant regions, respectively. All Biacore binding studies were performed in 0.01M ADA pH 7.4, 0.15M NaCl, 3 mM EDTA, and 0.05% v/v Surfactant Tween-20 (ABS-ET running buffer). […] Association of either hIL-33 or MfIL-33-6His to the captured monoclonal antibody was monitored for 4 minutes and their dissociation in ABS-ET running buffer was monitored for 10 minutes. The effect of reduced pH on the binding of each anti-IL-33 antibody to either hIL-33 or MfIL-33-6His was studied using an in-line pH chase assay format in 0.01M ADA pH 6.0, 0.15M NaCl, 3 mM EDTA, and 0.05% v/v Surfactant Tween-20 (ABS-ET pH6 buffer). To achieve this, association of either hIL-33 or MfIL-33-6His to the captured monoclonal antibody was monitored for 4 minutes in ABS-ET running buffer. Following a 30 second dissociation of either hIL-33 or MfIL-33-6His in ABS-ET running buffer, ABS-ET pH6 buffer was injected for 3 minutes, and the analyte dissociation under the low-pH conditions was measured. All the binding kinetic experiments were performed at both 25° C. and 37° C. Kinetic association (kₐ) and dissociation (kd) constants were determined by fitting the real-time sensorgrams to a 1:1 binding model using Scrubber 2.0c curve fitting software. Binding dissociation equilibrium constants (KD) and dissociative half-lives (t½) were calculated from the kinetic rate constants as: […]
Binder,koff [s⁻¹],t½ [min],t½ Ratio (pH 7.4/pH 6.0)
B1,0.00226,5,0.5
B2,0.00102,11,0.5
B3,0.00463,2.5,1
B4,0.00168,7,1.1
B5,0.00354,3.3,1
B6,0.00193,6,0.3
B7,0.004,2.9,1.9

# Molecular target: T2, human IL-33 (R&D Systems, …)
# Experiment: SPR 37C, pH6.0 chase, mAb captured
# Protocol: as §1
Binder,koff [s⁻¹],t½ [min],t½ Ratio (pH 7.4/pH 6.0)
B1,0.00265,4,4.6
B2,0.00299,4,7.4
B3,0.00323,4,6.8
B4,0.00383,3,6.2
B5,0.00462,3,3.7
B6,0.00279,4,3.9
B7,0.00965,1,6.7

# Molecular target: T1, cynomolgus monkey IL-33 expressed with …
# Experiment: SPR 25C pH7.4, mAb captured
# Protocol: as §1
Binder,Kd [nM],koff [s⁻¹],kon [M⁻¹ s⁻¹],t½ [min]
B1,3.06,0.00137,450000,8
B2,1.5,0.000486,325000,24
B3,3.49,0.00149,426000,8
B4,1.25,0.000442,353000,26
B5,1.06,0.000925,869000,12
B6,11.8,0.00165,140000,7
B7,1.02,0.000566,557000,20

# Molecular target: T2, human IL-33 (R&D Systems, …)
# Experiment: SPR 25C pH7.4, mAb captured
# Protocol: as §1
Binder,Kd [nM],koff [s⁻¹],kon [M⁻¹ s⁻¹],t½ [min]
B1,0.26,0.000237,912000,49
B2,0.327,0.000172,526000,67
B3,0.322,0.000224,696000,52
B4,0.308,0.00025,811000,46
B5,0.305,0.000414,1.36e+06,28
B6,0.757,0.000257,339000,45
B7,0.533,0.000474,888000,24
